{
  "source": "paper PMC10066393",
  "about": "“Structural insights into the mechanism of leptin receptor activation” (Nature Communications, 2023)",
  "key": {"[1]": {"biological_target": "Myc-tagged full-length human LepR, wild type (human) (UniProt P48357)", "sequence (P48357 22-1165)": "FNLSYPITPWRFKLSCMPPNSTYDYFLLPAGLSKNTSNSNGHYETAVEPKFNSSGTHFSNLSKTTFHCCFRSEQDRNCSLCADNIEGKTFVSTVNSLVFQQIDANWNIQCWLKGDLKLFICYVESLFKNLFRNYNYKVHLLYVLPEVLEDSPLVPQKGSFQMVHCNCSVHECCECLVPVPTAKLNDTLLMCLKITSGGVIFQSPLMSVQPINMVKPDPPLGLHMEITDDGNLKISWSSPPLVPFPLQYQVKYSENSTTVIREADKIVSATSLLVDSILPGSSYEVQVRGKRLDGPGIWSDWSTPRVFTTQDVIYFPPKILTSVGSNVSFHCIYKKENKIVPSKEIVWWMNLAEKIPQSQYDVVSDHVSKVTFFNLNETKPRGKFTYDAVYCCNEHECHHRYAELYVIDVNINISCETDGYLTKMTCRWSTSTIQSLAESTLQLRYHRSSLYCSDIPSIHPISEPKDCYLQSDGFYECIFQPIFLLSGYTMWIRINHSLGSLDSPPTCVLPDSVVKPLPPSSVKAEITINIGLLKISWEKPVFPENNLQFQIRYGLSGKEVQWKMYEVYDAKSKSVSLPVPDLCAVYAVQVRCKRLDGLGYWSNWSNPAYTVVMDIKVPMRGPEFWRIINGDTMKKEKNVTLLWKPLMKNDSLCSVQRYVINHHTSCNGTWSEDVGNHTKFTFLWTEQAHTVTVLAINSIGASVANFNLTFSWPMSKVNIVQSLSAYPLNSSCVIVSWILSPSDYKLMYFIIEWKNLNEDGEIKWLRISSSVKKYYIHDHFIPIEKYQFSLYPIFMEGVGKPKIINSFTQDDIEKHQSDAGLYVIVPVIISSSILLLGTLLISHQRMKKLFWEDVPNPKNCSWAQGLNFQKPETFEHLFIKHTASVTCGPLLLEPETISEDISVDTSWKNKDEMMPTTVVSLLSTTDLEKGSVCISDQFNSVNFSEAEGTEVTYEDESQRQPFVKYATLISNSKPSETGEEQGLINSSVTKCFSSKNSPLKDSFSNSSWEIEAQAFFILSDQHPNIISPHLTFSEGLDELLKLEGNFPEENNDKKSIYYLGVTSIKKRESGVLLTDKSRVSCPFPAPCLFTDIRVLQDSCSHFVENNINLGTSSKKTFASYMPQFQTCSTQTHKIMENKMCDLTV"}, "[2]": {"biological_target": "Myc-tagged full-length human LepR, wild type (human) (UniProt P48357)", "remark": "listed apart in the source"}, "[3]": {"biological_target": "mouse LepR^D1-D7-zip (Mus musculus | not stated) (UniProt P48356)"}, "mouse leptin [4]": {"biological_target": "T1, mouse leptin (Mus musculus, UniProt P41160 22-167)", "T1 construct": "leptin, Mus musculus, produced in E. coli; Two leptin molecules stand in the 2:2 complex with the zippered LepR dimer; also called M. musculus leptin; source: Escherichia coli produced", "T1 sequence (P41160 22-167)": "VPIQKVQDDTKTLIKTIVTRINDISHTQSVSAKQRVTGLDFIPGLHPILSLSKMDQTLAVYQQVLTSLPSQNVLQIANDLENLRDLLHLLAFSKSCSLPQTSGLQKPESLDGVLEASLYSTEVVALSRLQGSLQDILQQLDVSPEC", "assay": "SEC; mouse leptin incubated with purified LepR-zip overnight at 4 °C at a leptin:LepR ratio of 4:1; Superdex 200 in PBS pH 7.2; co-elution", "conditions": "both partners purified"}, "mouse leptin [5]": {"biological_target": "T1, mouse leptin", "assay": "cryo-EM structure; SEC-purified leptin–LepR-zip complex cross-linked with 1 mM BS3, 1–2 mg/ml in PBS, 0.01% fluorinated octyl maltoside; single particle cryo-EM, AlphaFold models docked and refined", "conditions": "both partners purified"}},
  "data": [
    {"molecule": "human leptin D23L/S117N (ligand)", "values": [
      {"measurement": "phospho-STAT3 left, immunoblots, HEK-293T cells stably expressing hLepR, 10 nM WT leptin plus the variant, relative to WT leptin alone (% of WT leptin alone)", "setting": "[1]", "result": 50},
      {"measurement": "reduction of phospho-SHP2 and phospho-ERK, immunoblots, HEK-293T cells stably expressing hLepR, 10 nM WT leptin plus the variant, 20 min", "setting": "[1]", "result": 90, "unit": "% reduction"}
    ]},
    {"molecule": "human leptin K33A/Q34A/K35A (ligand)", "values": [
      {"measurement": "maximal phospho-STAT3 response, dose-response by phospho-flow cytometry, LepR-expressing HEK 293T cells, percent of WT leptin (% of WT leptin)", "setting": "[2]", "result": 75}
    ]},
    {"molecule": "human leptin S117N (ligand)", "values": [
      {"measurement": "maximal phospho-STAT3 response, dose-response by phospho-flow cytometry, LepR-expressing HEK 293T cells, percent of WT leptin (% of WT leptin)", "setting": "[2]", "result": 45}
    ]},
    {"molecule": "leptin S117A used on cells expressing mouse LepR (from UniProt P41160 22-167) (ligand)", "values": [
      {"measurement": "activation of ERK in cells expressing mouse LepR (the whole receptor on cells, not the zip construct)", "setting": "[3]", "result": 5, "unit": "%"},
      {"measurement": "activation of SHP2 in cells expressing mouse LepR (the whole receptor on cells, not the zip construct)", "setting": "[3]", "result": 20, "unit": "%"},
      {"measurement": "activation of STAT3 in cells expressing mouse LepR (the whole receptor on cells, not the zip construct)", "setting": "[3]", "result": 60, "unit": "%"}
    ]},
    {"molecule": "mouse LepR^D1-D7-zip (receptor, leptin receptor (LepR), Mus musculus, complete extracellular domain D1-D7, residues 23-839; GCN4 leucine zipper, C-terminal, stands in place of the transmembrane domain; Secreted with an N-terminal HA signal peptide from the vector pD649; Dimerised by the leucine zipper; source: Expi293F, transiently transfected, purified from supernatant (Ni-NTA, SEC)) NLAYPISPWKFKLFCGPPNTTDDSFLSPAGAPNNASALKGASEAIVEAKFNSSGIYVPELSKTVFHCCFGNEQGQNCSALTDNTEGKTLASVVKASVFRQLGVNWDIECWMKGDLTLFICHMEPLPKNPFKNYDSKVHLLYDLPEVIDDSPLPPLKDSFQTVQCNCSLRGCECHVPVPRAKLNYALLMYLEITSAGVSFQSPLMSLQPMLVVKPDPPLGLHMEVTDDGNLKISWDSQTMAPFPLQYQVKYLENSTIVREAAEIVSATSLLVDSVLPGSSYEVQVRSKRLDGSGVWSDWSSPQVFTTQDVVYFPPKILTSVGSNASFHCIYKNENQIISSKQIVWWRNLAEKIPEIQYSIVSDRVSKVTFSNLKATRPRGKFTYDAVYCCNEQACHHRYAELYVIDVNINISCETDGYLTKMTCRWSPSTIQSLVGSTVQLRYHRRSLYCPDSPSIHPTSEPKNCVLQRDGFYECVFQPIFLLSGYTMWIRINHSLGSLDSPPTCVLPDSVVKPLPPSNVKAEITVNTGLLKVSWEKPVFPENNLQFQIRYGLSGKEIQWKTHEVFDAKSKSASLLVSDLCAVYVVQVRCRRLDGLGYWSNWSSPAYTLVMDVKVPMRGPEFWRKMDGDVTKKERNVTLLWKPLTKNDSLCSVRRYVVKHRTAHNGTWSEDVGNRTNLTFLWTEPAHTVTVLAVNSLGASLVNFNLTFSWPMSKVSAVESLSAYPLSSSCVILSWTLSPDDYSLLYLVIEWKILNEDDGMKWLRIPSNVKKFYIHDNFIPIEKYQFSLYPVFMEGVGKPKIINGFTKDAIDKQQNDAGEELLSKNYHLENEVARLKK", "values": [
      {"measurement": "binding result", "setting": "mouse leptin [4]", "result": "binds"}
    ]},
    {"molecule": "mouse LepR^D3-D7-zip (receptor, leptin receptor (LepR), Mus musculus, domains D3-D7, residues 330-839; GCN4 leucine zipper, C-terminal, stands in place of the transmembrane domain; Secreted with an N-terminal HA signal peptide from the vector pD649; Dimerised by the leucine zipper; source: Expi293F, transiently transfected, purified from supernatant (Ni-NTA, SEC)) DVVYFPPKILTSVGSNASFHCIYKNENQIISSKQIVWWRNLAEKIPEIQYSIVSDRVSKVTFSNLKATRPRGKFTYDAVYCCNEQACHHRYAELYVIDVNINISCETDGYLTKMTCRWSPSTIQSLVGSTVQLRYHRRSLYCPDSPSIHPTSEPKNCVLQRDGFYECVFQPIFLLSGYTMWIRINHSLGSLDSPPTCVLPDSVVKPLPPSNVKAEITVNTGLLKVSWEKPVFPENNLQFQIRYGLSGKEIQWKTHEVFDAKSKSASLLVSDLCAVYVVQVRCRRLDGLGYWSNWSSPAYTLVMDVKVPMRGPEFWRKMDGDVTKKERNVTLLWKPLTKNDSLCSVRRYVVKHRTAHNGTWSEDVGNRTNLTFLWTEPAHTVTVLAVNSLGASLVNFNLTFSWPMSKVSAVESLSAYPLSSSCVILSWTLSPDDYSLLYLVIEWKILNEDDGMKWLRIPSNVKKFYIHDNFIPIEKYQFSLYPVFMEGVGKPKIINGFTKDAIDKQQNDAGEELLSKNYHLENEVARLKK", "values": [
      {"measurement": "binding result", "setting": "mouse leptin [5]", "result": "binds"}
    ]}
  ]
}
